Source: PMC3866925, “Functional characterization of two members of histidine phosphatase superfamily in Mycobacterium tuberculosis” (BMC Microbiology, 2013)

Target: the molecule itself
Assay: SEC

B1: C-His-Rv2135c (enzyme)
chain: MTVILLRHARSTSNTAGVLAGRSGVDLDEKGREQATGLIDRIGDLPIRAVASSPMLRCQRTVEPLAEALCLEPLIDDRFSEVDYGEWTGRKIGDLVDEPLWRVVQAHPSAAVFPGGEGLAQVQTRAVAAVREHDRRLADQHGHDVLWLACTHGDVIKAVIADAFGMHLDSFQRITADPGSVSVVRYTQLRPFVLHVNHTGARLAPALQAAASAQGASPEPNAAVPPGDAVIGGSTD
notes: also called C-His-Rv2315c; not shown: His6, C-terminal, kept
  stoichiometry N: 4

B2: C-His-Rv0489 (enzyme)
chain: MANTGSLVLLRHGESDWNALNLFTGWVDVGLTDKGQAEAVRSGELIAEHDLLPDVLYTSLLRRAITTAHLALDSADRLWIPVRRSWRLNERHYGALQGLDKAETKARYGEEQFMAWRRSYDTPPPPIERGSQFSQDADPRYADIGGGPLTECLADVVARFLPYFTDVIVGDLRVGKTVLIVAHGNSLRALVKHLDQMSDDEIVGLNIPTGIPLRYDLDSAMRPLVRGGTYLDPEAAAAGAAAVAGQGRG
notes: also called C-His-Rv0489c; cofactor dependent phosphoglycerate mutase of M. tuberculosis; not shown: His6, C-terminal, kept
  stoichiometry N: 2
